{"source": "patent US20200230115A1", "about": "“METHODS OF TREATING INFLUENZA-ASSOCIATED VIRAL PNEUMONIA” (priority 2017, published 2020)", "key": {"[1]": {"tested_on": "AECII", "experiment": "Flow cytometry of dispersed lung cells (pro SP-C, Ki67, IAV-NP) after in vivo treatment", "parameters": "species or system DBA/2J mice"}, "[2]": {"tested_on": "AECII", "type": "cell-based, mice"}, "[3]": {"tested_on": "cytokines and chemokines", "experiment": "Multiplex analysis of inflammatory mediators in BALF and serum", "type": "in vivo, DBA/2J mice"}, "[4]": {"tested_on": "IL-6, TNFα, KC, MCP-1", "type": "in vivo"}}, "note": "Where two headings read alike, the source gives them in different places."}
{"molecule": "KGF: keratinocyte growth factor, a potent pulmonary epithelial mitogen; cognate receptor FGFR2 (protein, UniProt P21781 32-194, looked up) Fibroblast growth factor 7: CNDMTPEQMATNVNCSSPERHTRSYDYMEGGDIRVRRLFCRTQWYLRIDKRGKVKGTQEMKNNYNIMEIRTVAVGIVAIKGVESEFYLAMNKEGKLYAKKECNEDCNFKELILENHYNTYASAKWTHNGGEMFVALNQKGIPVRGKKTKKEQKTAHFLPMAIT", "values": [{"measurement": "fold increase in percentage of AECII proliferating vs PBS", "setting": "[1]; 48 h after i.t. KGF 5 mg/kg", "result": "more than sevenfold"}, {"measurement": "percentage of AECII proliferating based on Ki67 staining", "setting": "[1]; 48 h after i.t. KGF 5 mg/kg, PBS-only mice 2%", "result": 14, "unit": "%"}, {"measurement": "percentage of AECII infected (IAV-NP), time course", "setting": "[1]; KGF 24, 48 or 120 h before 50,000 particles i.t. IAV, peak", "result": "peaked in dispersed lung cells from mice that had been pretreated with KGF 48 h before infection"}, {"measurement": "mean channel fluorescence of IAV-NP (viral burden per cell), time course", "setting": "[1]; KGF 24, 48 or 120 h before IAV, peak", "result": "peaking in cells harvested at 48 h after KGF"}, {"measurement": "percentage of AECII infected (IAV-NP)", "setting": "[1]; KGF 120 h before inoculum", "result": "remained near PBS control levels"}, {"measurement": "mean channel fluorescence of IAV-NP (viral burden per cell)", "setting": "[1]; mouse, in vivo", "result": "remaining close to PBS control levels"}, {"measurement": "percentage of AECII infected vs PBS control mice", "setting": "[1]; mouse, in vivo", "result": "significantly greater"}, {"measurement": "percentage of AECII proliferating (Ki67)", "setting": "[1]; mouse, in vivo", "result": "remaining similar to PBS control levels"}, {"measurement": "percentage of AECII proliferating (Ki67), time course", "setting": "[1]; mouse, in vivo", "result": "peaking in cells isolated from mice that had been dosed with KGF 48 h before PBS challenge"}, {"measurement": "MCF per cell for IAV-NP", "setting": "[2]", "result": "returning to baseline"}, {"measurement": "mean fluorescence intensity of IAV-NP staining, Ki67 high vs Ki67 low", "setting": "[2]", "result": "greater in the Ki67 high (proliferating) than the Ki67 low (nonproliferating) population"}, {"measurement": "peak in expression of viral protein M1 (Western blot)", "setting": "[2]", "result": "occurred in AECII that were isolated 48 h after in vivo KGF challenge"}, {"measurement": "percentage of AECII infected after ex vivo IAV incubation", "setting": "[2]", "result": "remained near baseline levels"}, {"measurement": "percentage of AECII infected after ex vivo IAV incubation, time course", "setting": "[2]", "result": "highest in cells harvested 48 h after in vivo KGF treatment"}, {"measurement": "percentage of AECII proliferating (Ki67)", "setting": "[2]", "result": "returned to near baseline"}, {"measurement": "percentage of AECII proliferating (Ki67), time course", "setting": "[2]", "result": "peaked at 48 h"}, {"measurement": "MCF per cell for IAV-NP, time course", "setting": "[2]; ex vivo IAV 18 h, peak", "result": "peaking in cells harvested at 48 h post KGF"}, {"measurement": "BAL IP10, MCP-5, TNFα, MIG, IL-6, MCP-1, G-CSF, M-CSF, IFNγ responses relative to PBS/IAV", "setting": "[3]; BALF, 72 h after IAV with 5 mg/kg KGF i.t.", "result": "modestly augmented"}, {"measurement": "serum inflammatory response to IAV (especially IP10, TNFα, MCP-1, IFNγ)", "setting": "[3]; serum, IAV with 5 mg/kg KGF i.t.", "result": "augmented the inflammatory response"}, {"measurement": "TNFα increase, KGF alone vs naive controls", "setting": "[4]; KGF treatment alone, 48 and 72 h postchallenge", "result": "two- to threefold increases"}, {"measurement": "cytokine responses, KGF alone (other than TNFα)", "setting": "[4]; KGF treatment alone, no IAV, any point", "result": "no effect"}, {"measurement": "enhancement of IAV-induced IL-6, TNFα, KC, MCP-1 levels", "setting": "[4]; whole-lung homogenates, 48 and 72 h, KGF coadministration with IAV", "result": "10-50%"}]}
